Data on 81 variants can be found in the supplement of paper PMC10471632, “Protein engineering and iterative multimodule optimization for vitamin B6 production in Escherichia coli” (Nature Communications, 2023).

B1: library; numbered along this chain (parent)
chain: MAELLLGVNIDHIATLRNARGTAYPDPVQAAFIAEQAGADGITVHLREDRRHITDRDVRILRQTLDTRMNLEMAVTEEMLAIAVETKPHFCCLVPEKRQEVTTEGGLDVAGQRDKMRDACKRLADAGIQVSLFIDADEEQIKAAAEVGAPFIEIHTGCYADAKTDAEQAQELARIAKAATFAASLGLKVNAGHGLTYHNVKAIAAIPEMHELNIGHAIIGRAVMTGLKDAVAEMKRLMLEARG

± gives the standard deviation of the averaged measurements.

In this series the parent is B1. Briefly: pyridoxine titer in culture supernatant of strain expressing the PdxJ variant; higher = more PN produced (higher in vivo pathway activity of the PdxJ variant). As to conditions: host strain: E. coli LL006; 48 h; temperature: 37 °C; FM1.4. In short, it runs like this: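 Engineered E. coli MG1655-derived producer strains carried a plasmid-borne pdxJ variant under a constitutive promoter. They were grown in 2 mL FM1.4 glycerol medium in 24 deep-well plates (initial OD600 0.1) for 48 h at 37 °C and 800 rpm, then centrifuged at 6200×g for 5 min. Pyridoxine titer in the supernatant was quantified by reversed-phase HPLC with fluorescence detection. Cultures were run in duplicate, with a wild-type-gene strain as control.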
Regarding G194C, the pyridoxine titer is 0.64 ± 0.33 mg/L. Turning to G7I E104T G194C I218L, the pyridoxine titer came out at 2.32 ± 0.19 mg/L.

On to E100I L212I, for which the pyridoxine titer was 0.67 ± 0.47 mg/L. For E104T G194C T196V I218L the value was 6.11 ± 7.1 mg/L; for A19C A23T L212I, 3.68 ± 0.73 mg/L; for I10L T22V E104T I218M, 0.757 ± 0.11 mg/L. For I10L V101L E104T I219W the value was 1.66 ± 0.26 mg/L. For I10L V101L E104T I219M the value was 0.553 ± 0.14 mg/L. Take I10L V101L E104T I219C: the pyridoxine titer worked out at 0.874 ± 0.68 mg/L.

E100I V101L: the pyridoxine titer was determined as 2.12 ± 0.11 mg/L. For I10L T22V A23T I219C the value was 1.49 ± 0.02 mg/L; for I154L I219G, 1.93 mg/L. As for I10L A23W V101L E104T, the pyridoxine titer is 1.8 ± 0.37 mg/L. For V101L T103L L212I the value was 0.81 ± 0.014 mg/L. Turning to I10L I13V L212I, the pyridoxine titer came to 3.48 ± 1.7 mg/L. For I13V T103L L212I the value was 0.43 ± 0.18 mg/L. As for A23T E104T L212I, the pyridoxine titer is 3.44 ± 1.2 mg/L. For H12M A14I T196C the value was 1.49 ± 0.28 mg/L; for E104T G194C I218L I219L, 4.45 ± 0.41 mg/L. As to I10L H155I I218L, the pyridoxine titer was found to be 0.28 ± 0.028 mg/L. For G7L E104T the value was 0.65 ± 0.014 mg/L. As for I10L T22V A23T, the pyridoxine titer is 6.93 ± 0.49 mg/L. For I10L L212I the value was 1.64 ± 0.24 mg/L; for E100I V101L T196C, 0.81 ± 0.21 mg/L. For T103L L212I the value was 3 ± 0.58 mg/L; for G7L N213I, 0.6 ± 0.11 mg/L.

In the case of I10L E100I I218L, the pyridoxine titer was 0.24 ± 0.16 mg/L.

In the case of G194C N213I I218L, the pyridoxine titer is 9.12 ± 0.45 mg/L. For the variant I10L T22V, the pyridoxine titer stood at 6.01 ± 0.81 mg/L. For I13V E100I G194K L212I the value was 0.324 ± 0.15 mg/L; for H155I, 3.05 ± 1.1 mg/L; for I10L T103L I218L, 0.29 ± 0.057 mg/L. For I10L T103L L212I the value was 0.43 ± 0.071 mg/L; for E100I T103L L212I, 0.66 ± 0.47 mg/L; for L195G L212I, 0.89 ± 0.014 mg/L. Consider A23T V44I L212I I219W, for which the pyridoxine titer came out at 3.27 ± 0.26 mg/L. For A23T H155I L212I the value was 0.63 ± 0.014 mg/L. For I10L G194C T196Y I218L the value was 0.378 ± 0.044 mg/L; for A23T I219G, 0.76 ± 0.16 mg/L; for A19Q G21M T103L, 0.49 ± 0.028 mg/L. For the variant H155I L212I, the pyridoxine titer was 0.36 mg/L.

For A217V I219G, the pyridoxine titer is 0.77 ± 0.11 mg/L. For I10L A19C V101L E104T the value was 0.41 ± 0.019 mg/L.

In the case of T22V, the pyridoxine titer was found to be 1.29 ± 0.091 mg/L. For E104T A217V the value was 1.12 ± 0.014 mg/L; for A19Q V44I, 0.875 ± 0.47 mg/L. For E104T I219G the value was 2.75 ± 3.3 mg/L; for I13V T196C, 2.15 ± 0.18 mg/L.

With I10L E104T I218L I219W, the pyridoxine titer amounted to 0.561 ± 0.22 mg/L. For I10L E104T I218L I219M the value was 0.32 ± 0.054 mg/L; for E100I E104T, 0.98 ± 0.2 mg/L. For I10L A19R T22V A23T the value was 0.561 ± 0.17 mg/L; for A23T V44I T196V L212I, 1.53 ± 0.17 mg/L. As to A23T E100I I219G, the pyridoxine titer is 8.72 ± 0.52 mg/L.

For the variant I13V A217V, the pyridoxine titer is 1.81 ± 0.057 mg/L.

In the case of A19R A23T E100I I219G, the pyridoxine titer was 0.244 ± 0.041 mg/L. For A23T V44I T196R L212I the value was 3.37 ± 1.5 mg/L; for A23T V44I L212I, 6.75 ± 0.099 mg/L; for I10L A23T V101L E104T, 0.257 ± 0.014 mg/L. For I13V E104T T196C the value was 9.62 ± 0.33 mg/L. For A23T G194C T196F I219G the value was 0.237 ± 0.011 mg/L; for G21M G194C, 0.6 ± 0.014 mg/L; for G7M E104T G194C I218L, 0.955 ± 0.033 mg/L. In the case of T103L, the pyridoxine titer came out at 3.2 ± 0.14 mg/L. For G7L T103L E104T the value was 7.1 ± 0.35 mg/L. For I10L G21D T22V E104T the value was 2.44 ± 1.1 mg/L; for V101L, 1.19 ± 0.086 mg/L; for I10L V101L, 1.46 ± 0.37 mg/L. Turning to A23T A217V, the pyridoxine titer is 1.12 ± 0.18 mg/L. For T15I T196C the value was 1.08 ± 0.071 mg/L; for A23T I218L I219V, 5.75 ± 0.16 mg/L; for I218V, 0.374 ± 0.063 mg/L. For V44I the value was 0.719 ± 0.33 mg/L; for I10L T196C, 0.61 ± 0.028 mg/L.

For the variant I154L, the pyridoxine titer stood at 1.72 ± 1.6 mg/L.

In the case of E104T I218L, the pyridoxine titer was 0.75 ± 0.085 mg/L. For A23T E104T G194K L212I the value was 0.349 ± 0.013 mg/L; for I13V H155I L212I, 0.81 ± 0.27 mg/L; for I10L V101L E104T I218M, 0 mg/L. For I10L V101L T103L E104T the value was 1.611 ± 0.0023 mg/L; for I13V E104T T196C I219C, 0.274 ± 0.01 mg/L.
